According to publication PMC8242953, “Immune Tolerance-Adjusted Personalized Immunogenicity Prediction for Pompe Disease” (Frontiers in Immunology, 2021):

Assays:
[1] = Anti-rhGAA IgG antibody (ADA) titers in IOPD subjects on ERT; type: in vivo, human
Experimental: Children with a confirmed diagnosis of IOPD were enrolled in Duke University Medical Centers. IOPD was defined as the presence of hypertrophic cardiomyopathy in the first year of life. […] Clinical data including CRIM status, GAA variants, GAA enzyme activity, age at ERT initiation, and longitudinal anti-rhGAA IgG antibody titers were extracted from medical records ( Supplementary Table S1 ).
ADA titers were determined by Sanofi Genzyme using enzyme-linked immunosorbent assays (ELISA) and confirmed using radioimmunoprecipitation as described previously ([6]). Subjects whose ADA titers repeatedly exceed 51,200 after more than 6-months on rhGAA were classified as high and sustained antibody titers (HSAT) ([5], [11]). Subjects whose ADA titers fell between 12,800 and 51,200 within the first year of ERT were classified as sustained intermediate titers (SIT). Based on ADA titers, subjects were stratified into two groups; 1) High ADA, subjects who developed ADA titers in HSAT or SIT range (≥12,800) and 2) Low ADA, subjects who maintained ADA titers of ≤6,400.

[2] = CRIM-positive IOPD children on ERT; ref [5]; cited from earlier work
Excerpt: The development of ADA to rhGAA is influenced by the presence or absence of endogenous GAA, defined as cross-reactive immunologic material (CRIM). Individuals who are CRIM-negative have a complete absence of GAA and are at the highest risk of ADA, whereas those who are CRIM-positive may be more immune tolerant to ERT, due to prior exposure to endogenous GAA ([4]). However, one-third of CRIM-positive IOPD children still develop high and sustained or intermediate ADA titers, putting them at risk for clinical decline similar to CRIM-negative individuals ([5]). All CRIM-negative patients develop H ...

## alglucosidase alfa [rhGAA]
[1]; 19 of 48 CRIM-positive IOPD subjects on rhGAA ERT without ITI, high ADA = HSAT or SIT, titers ≥12,800
  subjects who developed high ADA titers: 40%
[1]; 29 of 48 CRIM-positive IOPD subjects on rhGAA ERT without ITI, low ADA = titers ≤6,400
  subjects who developed low ADA titers: 60%
[2]
  share of CRIM-positive IOPD children who develop high and sustained or intermediate ADA titers: one-third
